B1: scFv; the commonest letter at each place (parent)
chain 1: EVKLDETGGGLVQPGRPMKLSCVASGFTFSDYWMNWVRQSPEKGLEWVAQIRNKPYNYETYYSDSVKGRFTISRDDSKSSVYLQMNNLRVEDMGIYYCTGSYYGMDYWGQGTSVTVS
chain 2: DVVMTQTPLSLPVSLGDQASISCRSSQSLVHSNGNTYLRWYLQKPGQSPKVLIYKVSNRFSGVPDRFSGSGSGTDFTLKISRVEAEDLGVYFCSQSTHVPWTFGGGTKLEIK

The data set “fluorescein” covers variants of B1. The experiment in a line: Kd (Tite-Seq). Particulars: with fluorescein; format: scFv 4-4-20, heavy + light.
Data set [1] covers variants of B1. In words: yeast surface expression (ratio to wild type); higher = more expressed. Particulars: format: scFv 4-4-20, heavy + light.

The term Kd denotes the free concentration of one partner at which half of the binding sites on the other are occupied at equilibrium, for simple one-to-one binding. chain 1 Y32R W36V: in the data set with fluorescein, the Kd is at least 10 µM. In data set [1], the yeast surface expression came to 0.547.

Turning to chain 1 Y32K M34C, the Kd with fluorescein was at least 10 µM. For the same variant, in data set [1], the yeast surface expression was found to be 0.91.

Regarding chain 1 Y32E N35G, in the data set with fluorescein, the Kd is at least 10 µM. For the same variant, the yeast surface expression in data set [1] amounted to 1.

Consider chain 1 Y32E N35S, for which the Kd with fluorescein is at least 10 µM. Further, the yeast surface expression in data set [1] came out at 0.87.

For chain 1 W108P G109N, the Kd with fluorescein was at least 10 µM. Further, the yeast surface expression in data set [1] was 0.473.

Regarding chain 1 W108P G109A, the equilibrium dissociation constant (Kd) in the data set with fluorescein is 3.2 µM. Moreover, in data set [1], the yeast surface expression worked out at 0.41.

Turning to chain 1 Y32R, in the data set with fluorescein, the Kd was determined as 0.064 µM. Further, in data set [1], the yeast surface expression was found to be 0.954.

Turning to chain 1 Y32I, the Kd with fluorescein is at least 10 µM. Besides, the yeast surface expression in data set [1] came to 0.938.

Take chain 1 Y32C: the Kd with fluorescein stood at 0.143 µM. The yeast surface expression in data set [1] is 1.05.

In the case of chain 1 Y32N, the equilibrium dissociation constant (Kd) in the data set with fluorescein was at least 10 µM. Further, the yeast surface expression in data set [1] is 1.21.

chain 1 Y32K: the Kd with fluorescein came to 1.67 µM. Also, the yeast surface expression in data set [1] worked out at 0.804.

As to chain 1 Y32M, in the data set with fluorescein, the Kd turned out to be 0.972 µM. Further, the yeast surface expression in data set [1] was determined as 1.03.

chain 1 Y32H: the dissociation constant Kd with fluorescein amounted to 0.0265 µM. Moreover, in data set [1], the yeast surface expression came out at 1.03.

In the case of chain 1 Y32W, the Kd with fluorescein is at least 10 µM. The yeast surface expression in data set [1] is 0.805.

chain 1 Y32G: the Kd with fluorescein worked out at 1.63 µM. Besides, in data set [1], the yeast surface expression amounted to 0.961.

Consider chain 1 Y32F, for which the Kd with fluorescein is 0.00352 µM. Further, in data set [1], the yeast surface expression came to 0.989.

On to chain 1 Y32V, for which, in the data set with fluorescein, the equilibrium dissociation constant (Kd) was at least 10 µM. For the same variant, the yeast surface expression in data set [1] came to 1.02.

Consider chain 1 Y32P, for which the Kd with fluorescein was at least 10 µM. Moreover, the yeast surface expression in data set [1] stood at 0.908.

As to chain 1 Y32D, the dissociation constant (Kd) with fluorescein is at least 10 µM. Also, in data set [1], the yeast surface expression was determined as 1.04.

For the variant chain 1 Y32A, in the data set with fluorescein, the equilibrium dissociation constant (Kd) amounted to 0.00993 µM. The yeast surface expression in data set [1] was found to be 1.15.

In the case of chain 1 Y32E, the Kd with fluorescein was at least 10 µM. Also, the yeast surface expression in data set [1] amounted to 0.927.

For chain 1 Y32Q, the Kd in the data set with fluorescein is at least 10 µM. In data set [1], the yeast surface expression is 0.929.

For chain 1 Y32S, the Kd with fluorescein stood at 0.155 µM. Further, the yeast surface expression in data set [1] stood at 1.06.

In the case of chain 1 Y32L, the Kd in the data set with fluorescein turned out to be 0.435 µM. For the same variant, the yeast surface expression in data set [1] was determined as 0.893.

As to chain 1 Y32T, the Kd with fluorescein was at least 10 µM. The yeast surface expression in data set [1] is 1.04.

As for chain 1 Y102A M105T, the equilibrium dissociation constant (Kd) with fluorescein turned out to be 0.176 µM. Further, the yeast surface expression in data set [1] turned out to be 1.08.

With chain 1 Y102A M105N, in the data set with fluorescein, the dissociation constant Kd was 0.0113 µM. Further, in data set [1], the yeast surface expression stood at 1.14.

Turning to chain 1 Y102A M105F, the Kd with fluorescein stood at 0.00575 µM. The yeast surface expression in data set [1] is 0.979.

Regarding chain 1 Y32P W33C, in the data set with fluorescein, the equilibrium dissociation constant (Kd) was found to be 2.47 µM. Moreover, the yeast surface expression in data set [1] turned out to be 0.832.

With chain 1 Y32P W33I, the dissociation constant Kd in the data set with fluorescein was at least 10 µM. The yeast surface expression in data set [1] worked out at 0.908.

In the case of chain 1 Y102E W108I, in the data set with fluorescein, the dissociation constant (Kd) came out at 0.000846 µM. The yeast surface expression in data set [1] came to 0.763.

Take chain 1 Y32N V37G: the Kd with fluorescein was determined as 0.0113 µM. Moreover, the yeast surface expression in data set [1] was 2.76.

Consider chain 1 Y32G M34N, for which, in the data set with fluorescein, the Kd was at least 10 µM. Besides, the yeast surface expression in data set [1] was 0.613.

On to chain 1 Y32G M34C, for which, in the data set with fluorescein, the Kd was at least 10 µM. In addition, the yeast surface expression in data set [1] turned out to be 0.676.

Take chain 1 Y32G M34E: in the data set with fluorescein, the Kd was at least 10 µM. Also, in data set [1], the yeast surface expression was determined as 0.194.

As for chain 1 Y32G M34P, in the data set with fluorescein, the Kd is at least 10 µM. The yeast surface expression in data set [1] came to 0.545.

Consider chain 1 Y32K W33E, for which the equilibrium dissociation constant (Kd) with fluorescein was at least 10 µM. In data set [1], the yeast surface expression turned out to be 0.552.

For the variant chain 1 Y32K W33I, the dissociation constant (Kd) with fluorescein was at least 10 µM. Moreover, in data set [1], the yeast surface expression stood at 0.763.

Take chain 1 Y32K W33T: in the data set with fluorescein, the Kd was at least 10 µM. In addition, in data set [1], the yeast surface expression came to 0.694.

Regarding chain 1 W108Q G109E, in the data set with fluorescein, the equilibrium dissociation constant (Kd) is at least 10 µM. For the same variant, the yeast surface expression in data set [1] worked out at 0.459.

As for chain 1 W108Q G109Q, in the data set with fluorescein, the equilibrium dissociation constant (Kd) is at least 10 µM. Further, the yeast surface expression in data set [1] was 0.278.

Consider chain 1 Y32M W33D V37C, for which, in the data set with fluorescein, the Kd is at least 10 µM. Moreover, the yeast surface expression in data set [1] is 0.778.

In the case of chain 1 Y32G V37P, the Kd with fluorescein is at least 10 µM. Further, the yeast surface expression in data set [1] came to 0.972.

For the variant chain 1 Y32I N35P, the dissociation constant Kd with fluorescein is at least 10 µM. The yeast surface expression in data set [1] was 0.0981.

Regarding chain 1 Y102F G109H, in the data set with fluorescein, the dissociation constant Kd is at least 10 µM. Also, in data set [1], the yeast surface expression amounted to 0.186.

Regarding chain 1 Y102F G109N, the Kd with fluorescein is at least 10 µM. Besides, in data set [1], the yeast surface expression is 0.27.

Take chain 1 Y32Q W36V: the dissociation constant Kd with fluorescein is at least 10 µM. Further, in data set [1], the yeast surface expression was 0.479.

Turning to chain 1 Y32R N35K, the Kd in the data set with fluorescein is at least 10 µM. Moreover, the yeast surface expression in data set [1] was 1.99.

As for chain 1 Y102D Y107K G109H, the Kd in the data set with fluorescein is at least 10 µM. For the same variant, the yeast surface expression in data set [1] is 0.302.

For the variant chain 1 Y32E V37Y, the Kd in the data set with fluorescein is at least 10 µM. Also, in data set [1], the yeast surface expression is 0.806.

Take chain 1 Y32A W33I M34T: the equilibrium dissociation constant (Kd) in the data set with fluorescein is at least 10 µM. The yeast surface expression in data set [1] worked out at 0.444.

For chain 1 Y102E D106M, the Kd with fluorescein was at least 10 µM. Besides, the yeast surface expression in data set [1] was 0.531.

chain 1 Y102E D106S: the Kd with fluorescein is at least 10 µM. Besides, in data set [1], the yeast surface expression is 1.01.

For chain 1 Y32A W33S V37G, the equilibrium dissociation constant (Kd) with fluorescein is at least 10 µM. In data set [1], the yeast surface expression amounted to 0.472.

For the variant chain 1 Y102F M105R, the Kd with fluorescein turned out to be 0.0146 µM. Further, the yeast surface expression in data set [1] is 1.2.

Turning to chain 1 Y32S N35E V37Q, in the data set with fluorescein, the equilibrium dissociation constant (Kd) is at least 10 µM. Besides, the yeast surface expression in data set [1] amounted to 0.677.

With chain 1 Y102A G109K, the equilibrium dissociation constant (Kd) with fluorescein is at least 10 µM. Also, in data set [1], the yeast surface expression is 0.279.

Turning to chain 1 Y32Q M34G V37K, the dissociation constant (Kd) with fluorescein is at least 10 µM. The yeast surface expression in data set [1] was found to be 1.04.

For the origin of these results see the FLAb antibody collection (doi:10.7554/elife.23156).
